Laboratory results from patent US6086895.

Molecular target: fibronectin (125I labelled)
Test: inhibition assay in tubes; control lysate undiluted; 125I fibronectin bound to S. aureus Cowan I cells (competitor)

## lysate of E. coli TG1 with pUC18-vector without insert (negative control) (pool or library)
  % binding in relation to control without lysate: 83.3%
